Source: WO2012028683A1 (dated 2012)

Molecular target: T1, recombinant human SOST (human, UniProt Q9BQB4 24-213, labeled with Cy5 (site not stated))
T1 construct: Acceptor-labelled partner in the FRET assay; also called sclerostin; Cy5-SOST
T1 sequence (looked up): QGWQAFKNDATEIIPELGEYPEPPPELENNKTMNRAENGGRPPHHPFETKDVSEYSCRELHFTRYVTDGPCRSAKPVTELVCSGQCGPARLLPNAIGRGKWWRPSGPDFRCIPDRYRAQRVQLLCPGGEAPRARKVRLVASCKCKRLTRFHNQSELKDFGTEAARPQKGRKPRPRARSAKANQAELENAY
Assay: FRET competition assay (inhibition of SOST binding to LRP6(Fc)), antibody released from the PBS gel

B1: ANTIBODY 1 (antibody, human IgG2, lambda, V domains shown)
VH: QVQLVESGGGLVQPGGSLRLSCAASGFTFRSHWLSWVRQAPGKGLEWVSNINYDGSSTYYADSVKGRFTISRDNSKNTLYLQMNSLRAEDTAVYYCARDTYLHFDYWGQGTLVTVSS
VL: DIALTQPASVSGSPGQSITISCTGTSSDVGDINDVSWYQQHPGKAPKLMIYDVNNRPSGVSNRFSGSKSGNTASLTISGLQAEDEADYYCQSYAGSYLSEVFGGGTKLTVLG
notes: also called anti-sclerostin antibody; mAb
binding result: binds
